US20070107085

Biological target: T1, Gly-Asp-Asp-Asp-Asp-Lys-β-naphthylamide
T1 chain: GDDDDK

B1: CBM-enterokinase produced transiently in lettuce and purified on cellulose (protein)
chain: MVATAKYGTPVIDGEIDEIWNTTEEIETKAVAMGSLDKNATAKVRVLWDENYLYVLAIVKDPVLNKDNSNPWEQDSVEIFIDENNHKTGYYEDDDAQFRVNYMNEQTFGTGGSPARFKTAVKLIEGGYIVEAAIKWKTIKPTPNTVIGFNIQVNDANEKGQRVGIISWSDPTNNSWRDPSKFGNLRLIK
Enterokinase activity: 442,7 cps/min/µg
